Assay results reported in US11278600B2, “Human alpha-galactosidase variants” (Codexis, Inc., priority 2014, dated 2022).

Legend:
Assay type in all cases: biochemical
[1] = HTP-analysis of supernatants pretreated with acid (MUGal hydrolysis); conditions: activity of the variant/activity of Rd4BB (SEQ ID NO: 15); challenge at pH 3.7
Procedure, shortened: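 Yeast INVSc1 supernatant, GLA variants; acid challenge: McIlvaine pH 3.3-4.3, 37° C., 1-3 h. Assay: MUGal in McIlvaine pH 4.8 plus citrate pH 4.3, 37° C., 30-180 min, Na2CO3 stop, Ex 355/Em 448 nm.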

[2] = HTP-analysis of yeast culture supernatants, no challenge (MUGal hydrolysis); conditions: activity of the variant/activity of Rd4BB (SEQ ID NO: 15)
Procedure, shortened: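 Activity read as 4-methylumbelliferyl α-D-galactopyranoside hydrolysis: fluorescence (355/448 nm) after sodium carbonate stop, following 30-180 min at 37° C with 2 mM MUGal stock at pH 4.6–4.8. Enzyme source is unchallenged culture supernatant of INVSc1 yeast expressing GLA variants, grown 66-84 h at 30° C.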

[3] = HTP-analysis of supernatants pretreated with base (MUGal hydrolysis); conditions: activity of the variant/activity of Rd4BB (SEQ ID NO: 15); challenge at pH 9.65
Procedure, shortened: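 Fluorescence of released 4-MU (Ex 355 nm, Em 448 nm) after carbonate quench reports MUGal hydrolysis by GLA variants secreted from INVSc1 yeast. Before the acidic (pH 4.3-4.8) 30-180 min reaction at 37° C, supernatants had been pre-incubated at pH 7.0-9.7 for 1-18 h at 37° C.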

Row | Molecule | Relative Activity of GLA Variants After Challenge at pH 3.7 [1] | Relative Activity of GLA Variants After No Challenge (NC) [2] | Relative Activity of GLA Variants After Challenge at pH 9.65 [3]
1 | 476 (protein, Synthetic Polypeptide sequence of Variant No. 476 of mature Human GLA) LDNGLARTPTMGWLHWERFMCNLDCQEEPDSCISEKLFMEMAERMVSEGWKDAGYEYLCIDDCWMAPQRDSEGRLQADPQRFPHGIRQLANYVHSKGLKLGIYADVGNKTCAGFPGSFGYYDIDAQTFADWGVDLLKFDGCYCDSLENLADGYKHMSLALNRTGRSIVYSCEWPLYMWPFQKPNYTEIRQYCNHWRNFADIDDSWKSIKSILDWTSFNQERIVDVAGPGGWNDPDMLVIGNFGLSWNQQVTQMALWAIMAAPLFMSNDLRHISPQAKALLQDKDVIAINQDPLGKQGYQLRQGDNFEVWERPLSGLAWAVAMINRQEIGGPRSYTIAVASLGKGVACNPACFITQLLPVKRKLGFYEWTSRLRSHINPTGTVLLQLENTEQMSLKDLL | + (0.5 to 1.5 relative activity over Rd4BB (SEQ ID NO: 15)) | + (0.5 to 1.5 relative activity over Rd4BB (SEQ ID NO: 15)) | + (0.5 to 1.5 relative activity over Rd4BB (SEQ ID NO: 15))
2 | 477 (protein, Synthetic Polypeptide sequence of Variant No. 477 of mature Human GLA) LDNGLARTPTMGWLHWERFMCNLDCQEEPDSCISEKLFMEMAERMVSEGWKDAGYEYLCIDDCWMAPQRDSEGRLQADPQRFPHGIRQLANYVHSKGLKLGIYADVGNKTCAGFPGSFGYYDIDAQTFADWGVDLLKFDGCYCDSLENLADGYKHMSLALNRTGRSIVYSCEWPLYMWPFQKPNYTEIRQYCNHWRNFADIDDSWKSIKSILDWTSFNQERIVDVAGPGGWNDPDMLVIGNFGLSWNQQVTQMALWAIMAAPLFMSNDLRHISPQAKALLQDKDVIAINQDPLGKQGYQLRQGDNFEVWERPLSGLAWAVAMINRQEIGGPRSYTIAVASLGKGVACNPACFITQLLPVKRKLGFYEWTSRLRSHINPTGTVLWQLENTMQMSLKDLL | − (<0.5 relative activity over Rd4BB (SEQ ID NO: 15)) | + (0.5 to 1.5 relative activity over Rd4BB (SEQ ID NO: 15)) | + (0.5 to 1.5 relative activity over Rd4BB (SEQ ID NO: 15))
3 | 471 (protein, Synthetic Polypeptide sequence of Variant No. 471 of mature Human GLA) LDNGLARTPTMGWLHWERFMCNLDCQEEPDSCISEKLFMEMAERMVSEGWKDAGYEYLCIDDCWMAPQRDSEGRLQADPQRFPHGIRQLANYVHSKGLKLGIYADVGNKTCAGFPGSFGYYDIDAQTFADWGVDLLKFDGCYCDSLENLADGYKHMSLALNRTGRSIVYSCEWPLYMWPFQKPNYTEIRQYCNHWRNFADIDDSWKSIKSILDWTSRNQERIVDVAGPGGWNDPDMLVIGNFGLSWDQQVTQMALWAIMAAPLFMSNDLRHISPQAKALLQDKDVIAINQDPLGKQGYQLRKGDNFEVWERPLSGDAWAVAIINRQEIGGPRSYTIPVASLGKGVACNPACFITQLLPVKRQLGFYNWTSRLKSHINPTGTVLLQLENWMQMSLKDLL | + (0.5 to 1.5 relative activity over Rd4BB (SEQ ID NO: 15)) | + (0.5 to 1.5 relative activity over Rd4BB (SEQ ID NO: 15)) | + (0.5 to 1.5 relative activity over Rd4BB (SEQ ID NO: 15))
4 | 472 (protein, Synthetic Polypeptide sequence of Variant No. 472 of mature Human GLA) LDNGLARTPTMGWLHWERFMCNLDCQEEPDSCISEKLFMEMAERMVSEGWKDAGYEYLCIDDCWMAPQRDSEGRLQADPQRFPHGIRQLANYVHSKGLKLGIYADVGNKTCAGFPGSFGYYDIDAQTFADWGVDLLKFDGCYCDSLENLADGYKHMSLALNRTGRSIVYSCEWPLYMWPFQKPNYTEIRQYCNHWRNFADIDDSWKSIKSILDWTSRNQERIVDVAGPGGWNDPDMLVIGNFGLSWDQQVTQMALWAIMAAPLFMSNDLRHISPQAKALLQDKDVIAINQDPLGKQGYQLRKGDNFEVWERPLSGDAWAVAIINRQEIGGPRSYTIPVASLGKGVACNPACFITQLLPVKRQLGFYNWTSRLKSHINPTGTVLLQLENTMQKSLKDLL | + (0.5 to 1.5 relative activity over Rd4BB (SEQ ID NO: 15)) | + (0.5 to 1.5 relative activity over Rd4BB (SEQ ID NO: 15)) | + (0.5 to 1.5 relative activity over Rd4BB (SEQ ID NO: 15))
5 | 474 (protein, Synthetic Polypeptide sequence of Variant No. 474 of mature Human GLA) LDNGLARTPTMGWLHWERFMCNLDCQEEPDSCISEKLFMEMAERMVSEGWKDAGYEYLCIDDCWMAPQRDSEGRLQADPQRFPHGIRQLANYVHSKGLKLGIYADVGNKTCAGFPGSFGYYDIDAQTFADWGVDLLKFDGCYCDSLENLADGYKHMSLALNRTGRSIVYSCEWPLYMWPFQKPNYTEIRQYCNHWRNFADIDDSWKSIKSILDWTSRNQERIVDVAGPGGWNDPDMLVIGNFGLSWDQQVTQMALWAIMAAPLFMSNDLRHISPQAKALLQDKDVIAINQDPLGKQGYQLRKGDNFEVWERPLSGDAWAVAIINRQEIGGPRSYTIPVASLGKGVACNPACFITQLLPVKRQLGFYNWTSRLKSHINPTGTVLLQFENTMQMSLKDLL | ++ (>1.5 to 2.5 relative activity over Rd4BB (SEQ ID NO: 15)) | + (0.5 to 1.5 relative activity over Rd4BB (SEQ ID NO: 15)) | + (0.5 to 1.5 relative activity over Rd4BB (SEQ ID NO: 15))
6 | 473 (protein, Synthetic Polypeptide sequence of Variant No. 473 of mature Human GLA) LDNGLARTPTMGWLHWERFMCNLDCQEEPDSCISEKLFMEMAERMVSEGWKDAGYEYLCIDDCWMAPQRDSEGRLQADPQRFPHGIRQLANYVHSKGLKLGIYADVGNKTCAGFPGSFGYYDIDAQTFADWGVDLLKFDGCYCDSLENLADGYKHMSLALNRTGRSIVYSCEWPLYMWPFQKPNYTEIRQYCNHWRNFADIDDSWKSIKSILDWTSRNQERIVDVAGPGGWNDPDMLVIGNFGLSWDQQVTQMALWAIMAAPLFMSNDLRHISPQAKALLQDKDVIAINQDPLGKQGYQLRKGDNFEVWERPLSGDAWAVAIINRQEIGGPRSYTIPVASLGKGVACNPACFITQLLPVKRQLGFYNWTSRLKSHINPTGTVLLQLENTMQLSLKDLL | + (0.5 to 1.5 relative activity over Rd4BB (SEQ ID NO: 15)) | + (0.5 to 1.5 relative activity over Rd4BB (SEQ ID NO: 15)) | + (0.5 to 1.5 relative activity over Rd4BB (SEQ ID NO: 15))
7 | 475 (protein, Synthetic Polypeptide sequence of Variant No. 475 of mature Human GLA) LDNGLARTPTMGWLHWERFMCNLDCQEEPDSCISEKLFMEMAERMVSEGWKDAGYEYLCIDDCWMAPQRDSEGRLQADPQRFPHGIRQLANYVHSKGLKLGIYADVGNKTCAGFPGSFGYYDIDAQTFADWGVDLLKFDGCYCDSLENLADGYKHMSLALNRTGRSIVYSCEWPLYMWPFQKPNYTEIRQYCNHWRNFADIDDSWKSIKSILDWTSFNQERIVDVAGPGGWNDPDMLVIGNFGLSWNQQVTQMALWAIMAAPLFMSNDLRHISPQAKALLQDKDVIAINQDPLGKQGYQLRQGDNFEVWERPLSGLAWAVAMINRQEIGGPRSYTIAVASLGKGVACNPACFITQLLPVKRKLGFYEWTSRLRSHINPTGTVLLQLENDMQMSLKDLL | + (0.5 to 1.5 relative activity over Rd4BB (SEQ ID NO: 15)) | + (0.5 to 1.5 relative activity over Rd4BB (SEQ ID NO: 15)) | + (0.5 to 1.5 relative activity over Rd4BB (SEQ ID NO: 15))
8 | 369 (protein, Synthetic Polypeptide sequence of Variant No. 369 of mature Human GLA) LDNGLARTPTMGWLHWERFMCNLDCQEEPDSCISEKLFMEMAESMVSEGWKDAGYEYLCIDDCWMAPQRDSEGRLQADPQRFPHGIRQLANYVHSKGLKLGIYADVGNKTCAGFPGSFGYYDIDAQTFADWGVDLLKFDGCYCDSLENLADGYKHMSLALNRTGRSIVYSCEWPLYMWPFQKPNYTEIRQYCNHWRNFADIDDSWKSIKSILDWTSRNQERIVDVAGPGGWNDPDMLVIGNFGLSWDQQVTQMALWAIMAAPLFMSNDLRHISPQAKALLQDKDVIAINQDPLGKQGYQLRKGDNFEVWERPLSGDAWAVAIINRQEIGGPRSYTIPVASLGKGVACNPACFITQLLPVKRQLGFYNWTSRLKSHINPTGTVLLQLENTMQMSLKDLL | + (0.5 to 1.5 relative activity over Rd4BB (SEQ ID NO: 15)) | + (0.5 to 1.5 relative activity over Rd4BB (SEQ ID NO: 15)) | − (<0.5 relative activity over Rd4BB (SEQ ID NO: 15))
